Experimental data published in a protein production outcome set (Wang et al. 2014).

Test: label from the status in PepcDB records

Sequence | protein production
MADWLIGIIMGAVEGLTEFLPVSSTGHMILTGHLLGFDDERAKVFEVVIQLGSILAVVVIFWKRLWSLVGIGKVTDGPSLNLLHIIIGMIPAGVLGVLFHSAIKEVLFGPGPVVISLVAGGILMIVAEKFSKPSTARTLDEITYKQAFTIGMFQCLALWPGFSRSGSTISGGLLARVSHTAAAEYTFILAVPMMVAASGLDLIKSWDILSAADIPLFATGFITAFVVAMLAIVSFLKLLSRVKLTPFAYYRFILAAVFYFFIM | failed
MADWVTGKVTKVQNWTDALFSLTVHAPINPFTAGQFTKLGLEIDGERVQRAYSYVNAPDNPNLEFYLVTVPQGKLSPRLAALKPGDEVQVVSDASGFFVLDEVPDCETLWMLATGTAIGPYLSILQYGQDVARFKNLVLVHAARFAADLSYLPLMLELQQRYEGKLRIQTVVSRENVPGSLTGRVPALIENGELEKAVGLPMDKETSHVMLCGNPQMVRDTQQLLKETRQMTKHLRRRPGHMTAEHYW | not failed
MAEASATEPERPDQESADDAVIATRALTKRYRGGQLAVDGLDLTVPAGSVFGFLGPNGSGKTTTIRMLMGLIEPTSGSARVLGRPMPRAARAVLPRVGALIEGPALYGFLSGRDNLLRYDAADPTADPRTRRERVAAALDRVGLAAAGGKKAKAYSLGMKQRLGLAAALLQPRRLLVLDEPTNGLDPQGMREIRSLVRELASDGTTVFLSSHLLDEIEQVCTHAAVMAQGRLITQGAVADLAAGARGRLVVTTPDAGDAARVLKEQGAADVVVDGDRVTAEPPERDLAEVNAALVAARVRVRGFVVERASLEDAFVALTGEGFDVAG | failed
MAEAVLENVNVPAVVSKDECIYCFESPYNEPLALNASPKHSLNICLNCFQATCNRHVPLHIRVTEYACDTIHSNYLTIAKVEKPKQENVEENNNNKKIKLQVIETSEDDTHNTIWSLQRFNGENVPRTVLSKSTDSDISSTALEKIEKILKAKSQDFEDKKNSWVLEISTCPHTENFQIPSKPENTVNLNQCSSCDLTQNLWLCLHCGNIGCGREQIGIDGHSHALDHYRSNNNHPLAIKLGSLSSSTYDLYCYACDDETRFPDNVNLGSALQIYGINIQEKIADEKTLVQLQVEQNENWQFRMVDSSGKEFEKLSASKNYGCGLINLGNSCYLNSVIQSLVNGGVPNWSLDFLGSKFPLDVVYPDNNLKCQWIKLLNAMKCEPELYPNGIKPTTFKKCIGQNHQEFSSNRQQDAMEFLTFLLDLLDKKFFSSSSSGIPNPNDLVRFMMEDRLQCNICGKVKYSYEPTEAIQIPLEENDEPQDMLERIKAYFEGQTIEFKCANCKEKVTANKKPGFKSLPQTLILNPIRIRLQNWIPVKTSNELSLPGLIDRDDMLDVSSYLSQGFDPQTENLLPDEDENRSSFTPNQCSISQLIEMGFTQNASVRALFNTGNQDAESAMNWLFQHMDDPDLNDPFVPPPNVPKKDKREVDEVSLTSMLSMGLNPNLCRKALILNNGDVNRSVEWVFNNMDDDGTFPEPEVPNEEQQQKKDLGYSTAKPYALTAVICHKGNSVHSGHYVVFIRKLVADKWKWVLYNDEKLVAADSIEDMKKNGYIYFYTRC | failed
MAEEQAATAMETSAVEKQPETTTEAEAPSLTTKRMVVAIDESDSSFYALQWVIDHFSNLLLTTAAAEAESGMLTVIHVQSPFNHFAAFPAGPGGATAVYASSSMIESVKKAQQETSAALLSRALQMCRAKQIRTETLVLEGEAKEMICEAVEKMHVDLLVVGSRGLGKIKRAFLGSVSDYCAHHANCPILIVKPPKEMTK | failed
MAEERSLNGEATGQDDESFFDSDQQGDDGKSTELNQKIGDLESQNQELARDNDAINRKIESLTAEIEELRGAESKAKRKMGEMEREIDKSDEERKVLEAIASRASELETEVARLQHELITARTEGEEATAEAEKLRSEISQKGGGIEELEKEVAGLRTVKEENEKRMKELESKLGALEVKELDEKNKKFRAEEEMREKIDNKEKEVHDLKEKIKSLESDVAKGKTELQKWITEKMVVEDSLKDSEKKVVALESEIVELQKQLDDAEKMINGLKNVVEEPLNGIEFKSWSPNVTAVGSGGAVAAVAVAVAGAAVVCYIYHSRRV | failed
MAEGKDRNFVTALARGLDVLRSFRPGEVLLTNTDLSERTGLPKPTVSRLTYTLCQLGYLVQDRQSGAYRLGVGVLQLGMGVLAGLDICDRAAEVLRGLRTGANPYITAALGEVHRAEVIYVAVSRSRENVSLSMHVGSRLPLFRSAIGRAILVGMEAEEREAAIAAGMRDLGVPEAELRSQIARAVEEYAVRGYCTGYGDWRADVNGIAVPVLSLGGARLHGLNLGGPSFHVTQEELERVFAPLLIEAGRSLGMVP | failed
MAEICLITGTPGSGKTLKMVSMMANDEMFKPDENGIRRKVFTNIKGLKIPHTYIETDAKKLPKSTDEQLSAHDMYEWIKKPENIGSIVIVDEAQDVWPARSAGSKIPENVQWLNTHRHQGIDIFVLTQGPKLLDQNLRTLVRKHYHIASNKMGMRTLLEWKICADDPVKMASSAFSSIYTLDKKVYDLYESAEVHT | not failed
MAEIKHYQFNVVMTCSGCSGAVNKVLTKLEPDVSKIDISLEKQLVDVYTTLPYDFILEKIKKTGKEVRSGKQLAREVILAVHGMTCSACTNTINTQLRALKGVTKCDISLVTNECQVTYDNEVTADSIKEIIEDCGFDCEILRDS | not failed
MAEIQFSKGVAETVVPEVRLSKSKNGQSGMAKFYFLEPTILAKESTDDITGMYLIDDEGEIITREVKGKFINGRPTAIEATVILNSQPEWDRFMRFMERYGAENGLGFSKSELEHHHHHH | not failed
MAEKISVKTADTNADEIDLGRLLGTLLDNRWLIIGVTAIFLIFGILYATLATPIYKADALVQVEKNSSNKLINDITSMLPDAKPESAAEVELITSRMIIGKTVNDLALDINVQQNYFPFFGKGIARLTGATKGVLAVSRLEVPDSWKDEPIILTVTDNKNYSISAGDAVRFEGQVGRLERHDGMTLLISDIAADEGTTFSIKKLNQLTAINNILKTLTVADRGKDTGVLALSLEGEDPILTNKILNSISENYLQQNVERKSEESGRSLEFLKEQLPNVRSILDEADNKLNIFRQKNESVDLSLEAKSVLETMVALEAQLNELTFKEAEISKLYTKEHPAYRALLEKRKTLEEEKEKINKRVGAMPKTQQEIIRLTRDVKAGQEVYMQLLNKQQELSINKASTVGNVRIIDSAVVQLRPVKPEKVFIVLLSIILGGLLSVSFVLIRTILHKGIESPEQLAELGISVYASVPLSAWQQKKDRALLGKGKRGNTRSTELLAVGNPADLAIEAIRSLRTSLHFAMMEAKNNVLMISGASPAIGKTFVSANLGAVIAQSGQRVLIVDCDMRKGYAHELMGCQGTDGLSDILSGQITTDKSIRKTAVENMDFIPRGQIPPNPSELLMHSRFSQFIDWATKNYDIVLLDTPPILAVTDAAVISRHAGTSLLVARFEVNTLKEIEVSIRRFEQNGTEIKGVILNAIVKRAASYYSYGNYDYYSYEYKSDK | failed
MAEKKWFDKVLSKWQYEPIQVFMRHLQSAEMDLSAIAVAYYLILTAFPLIVIAANIFPYLNIDIADLLRLMKQNLPKDIFRPASAIVENIFSKPSGSVLGVATLTGLWTMSRSLTSLQKAINKAYGASQHRDFFIGHLVGLLTSLIILFLLAFALIFSIFSKAAIQVLDKHYHLSDNITTIFLLLIQPITVLIIFVGLMLLYFLLPNVKIKKIRYILPGTLFTSFVMTFLSNLVGNYVVYNVERMVDIKMFGSVMIFIIMLWFIFLARILILGAIFNATYQEMSLGKLEGRSGDMIAILKKTLGNDSDLSPSQSIEDSHTD | failed
MAELAANDIDSALRWLERAIDHDPEYSSAYAALGDIYQRTNDPVEADYCLRMALRCSPDSSEILHKLARNCVTLGNRSEALALLREAKDRHSGSVDFLSQLALIYDDLDETDLAICTWEEVIALNPLDASAHNNLGLQWHYGKGDVDKALDCFMRALQLNPCLTEARFNLYQAKADAGKVDEALAGFESMLAEPFREEVMFHRSIMLLKNRRFGEGWREYHLRWRYRGTQSRSFPFPNWDGQPCTGKTLLVYGEQGLGDEIMFASCLRDLHEKTGAKIVLECNTRLESLFRRSFPGITVIGRSSAQTSADGLASGATIDFQTAIGDLPGMFRAEEAAFPNHRGYLVADPKRVTFWKDRLAALGEGPKIGISWRGGQGKTRREARSIPLQEWHPILAAEGRHFVSLQYTDCRQELQALEEQHGIVIHHWQEAIDDYDETAALVMALDKVITVCTSIVHLTGALGRPAWVLVPRVPEWRYLASGETMPWYPSVRLFRQPRAGDWAPVLRDIAWKLGTVARRVDHDLG | failed
MAELEAVADDLDALIDDLDYLPGHFHLEMQLNFEPRSPAPQRARDLKLQREGLRQELQLAAAPQRPAVRHLLGAFAFYLEELDEARECFLEVAHEHPGNLNAWANLAHVYGRLGQEEEEEACAARLADLMGLAEEPEAAGDPQLRAARCLAEQGYAHGFDVGCASPEERARGLAAGIALYDKALGYGQQIPMEEKRGWYFTMATLYIRLDGIFLELGSEEQKRLPAFNRTLALLRQVLKSEDPRHRALAWCYLGMLLERKDTFSTTPMGVHDCGYSGTDPLDCFGKAIEIAKNQPPILNRLAKIFYFLGKQDMAIGTCNMALDVLRDPELNWQAYCTRAKIHIRAYLHDLKRAKMGLGGMPDRNHLACAKADLEEVVRVCPGFKAYLDIGQVYYYMGVDAVQELLAVDEAALNQALVFLAKAGESELGATLPELQLLRGKCLRIKGEDANAAACFKRAVELDDAGSSHTDGFGCLLEALLAQWSQAQLSDGELGREVDAWLRRAQDKYPAARLRQELQRVWRGHTDEVLGLARALVAQGRPALVRLLFETMEREGEGASAPRDRRAVSF | failed
MAELENPSVMSKLIAFLSSLLERVAESNDLTRRVATQSQRVSVFHGLSRPTITIQSYLERIFKYANCSPSCFVVAYVYLDRFTHRQPSLPINSFNVHRLLITSVMVAAKFLDDLYYNNAYYAKVGGISTKEMNFLELDFLFGLGFELNVTPNTFNAYFSYLQKEMTLLQPLSLVVVPSSRSLITFNDDEASHQKQQQQQLAV | failed
MAELGITLRTVQSLGPGETIWDAGHRAAVRGFGVRRQRGAPVYVLKYRAHGRQRFFTIGPHGSPWTPERARREAKRLLGLVADGKDPADDRAEAALQAADTLLKIADQYLKHAKQKQRPRTYSEIERYLLTAWKPLHPVSVFLIKRRHVAIRIAEIATGQGAVTAARARAALSAMFNWAIREGLDIPANPVLGTNRPAAPRSRDRVLADGELAEIWAALGDDDYGRIVKLLLLTAQRREEVGSMRRTELDLENSVWKIPGNRTKNHREHKVPLTKAAIALIPLPRGNREYVFGDGPRREGDNHRGYSGWSKSKAGLDARLLAVRQKALDAGVAAEPLPDWHLHDLRRTAATVMADRLGVFPHIVEAVLNHVSGHRAGVAGVYNLARYETDMRAALNAWADNIKDIVAS | failed
MAENGESSGPPRPSRGPAAAQGSAAAPAEPKIIKVTVKTPKEKEEFAVPENSSVQQFKEAISKRFKSQTDQLVLIFAGKILKDQDTLIQHGIHDGLTVHLVIKSQNRPQGQSTQPSNAAGT | failed
MAEQKNHNNELNVEDALTQSEAFLVKNKKAIIGAVVAVIVIVAGAILYKNFYAEPREEKAQAALFKSEQYFEQSAYEQALNGDSIGSIGFLKVADQFSGTKAANLAKAYAGICYQNLGKYEEAIKALDGFSGDDQMVAPAIQGAIGNCYAQLGQLDKATSALLKAADHADNSTLSPIFLLQAGEILMKQGKNEEAVKAFTKIKDKYFQSYQAMDIDKYIEQAKLLKK | failed
MAESGVSVGSESLQLYEAQFFGFTPETCTLRVRDAFRDSLNHILVAVESVFVKRLCPGRDPPAELRLTARESTQKLRQFLQERFEIMFQRMKGMLIDRMLSIPQNVLLPEDQMHQKYPEGKEELTKLQESIAKLLQAYEAEVCSKQALLAELEEQKETQKQLDEVLRWIEELRVSWRREGMGNVQDSVRHMIETVGQLQDVVGKINKQNSALDEV | failed
